Assay results taken from patent US20080299072A1 (LABORATOIRES SERONO, published 2008).

T1: CCR1 (UniProt P32246 1-355, limits assumed)
T1 construct: whole, on cells; Membrane preparation of CHO transfectants; also called CCR1-expressing CHO membranes
T1 sequence (looked up): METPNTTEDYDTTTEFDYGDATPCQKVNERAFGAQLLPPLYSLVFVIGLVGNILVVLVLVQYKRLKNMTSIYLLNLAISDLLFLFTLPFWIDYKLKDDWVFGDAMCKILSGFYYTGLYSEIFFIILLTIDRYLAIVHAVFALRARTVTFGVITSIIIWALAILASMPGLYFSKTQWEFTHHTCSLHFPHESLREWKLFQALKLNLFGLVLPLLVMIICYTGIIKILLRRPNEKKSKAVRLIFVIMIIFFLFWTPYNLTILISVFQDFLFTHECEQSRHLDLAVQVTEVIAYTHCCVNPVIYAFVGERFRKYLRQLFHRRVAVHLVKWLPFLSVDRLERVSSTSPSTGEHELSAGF

B1: Mature wildtype (wt) human RANTES (ligand)
chain: SPYSSDTTPCCFAYIARPLPRAHIKEYFYTSGKCSNPAVVFVTRKNRQVCANPEKKWVREYINSLEMS
notes: The mature form was used; also called WT RANTES; CCL5
B2: S1C-5 kDaPEG-RANTES (ligand)
chain: C(mPEG‑MAL 5 kDa)PYSSDTTPCCFAYIARPLPRAHIKEYFYTSGKCSNPAVVFVTRKNRQVCANPEKKWVREYINSLEMS
notes: Expressed without a leader; also called S1C-5 kDa-RANTES
B3: S4C-5 kDaPEG-RANTES (ligand)
chain: SPYC(mPEG‑MAL 5 kDa)SDTTPCCFAYIARPLPRAHIKEYFYTSGKCSNPAVVFVTRKNRQVCANPEKKWVREYINSLEMS
notes: This is probably a printing error; also called S4C-5 kDa-RANTES
B4: S5C-5 kDaPEG-RANTES (ligand)
chain: SPYSC(mPEG‑MAL 5 kDa)DTTPCCFAYIARPLPRAHIKEYFYTSGKCSNPAVVFVTRKNRQVCANPEKKWVREYINSLEMS
notes: also called S5C-5 kDa-RANTES
B5: PEG-2 kDa-RANTES (ligand)
chain: {mPEG‑ButyrALD 2 kDa}-SPYSSDTTPCCFAYIARPLPRAHIKEYFYTSGKCSNPAVVFVTRKNRQVCANPEKKWVREYINSLEMS
notes: also called N-terminal PEGylated wt RANTES (2 kDa)
B6: PEG-5 kDa-RANTES (ligand)
chain: {mPEG‑ButyrALD 5 kDa}-SPYSSDTTPCCFAYIARPLPRAHIKEYFYTSGKCSNPAVVFVTRKNRQVCANPEKKWVREYINSLEMS
notes: also called N-terminal PEGylated wt RANTES (5 kDa)
B7: Met-RANTES (ligand)
chain: MSPYSSDTTPCCFAYIARPLPRAHIKEYFYTSGKCSNPAVVFVTRKNRQVCANPEKKWVREYINSLEMS
notes: The build (Met + mature RANTES) comes from the background description and the name

What was measured:
CCR1 [1] = molecular target: T1, CCR1; assay: competition SPA, displacement of 125I-MIP-1α from CCR1 CHO membranes (FIG. 1)
Protocol: FIG. 1: Equilibrium competition binding to CCR1. The binding assay was performed by monitoring the displacement of [¹²⁵I]-MIP-1α from CCR1-expressing CHO membranes. A) PEGylated Ser/Cys variants (S1C, S4C). Added as competitors were: RANTES (□), Met-RANTES (X), S1C-5 kDaPEG-RANTES (▪), S4C-5 kDaPEG-RANTES. B) N-terminal PEGylated wt RANTES variants. Added as competitors were: RANTES (□), Met-RANTES (X), PEG-2 kDa-RANTES (▴), PEG-5 kDa-RANTES (▾).
(§1) The assay was carried out on membranes isolated from CHO transfectants expressing CCR1 and CCR5 from Invitrogen® using a scintillation proximity assay (Alouani, 2000). The unlabelled chemokines were prepared in triplicate by serial dilution in the range of 10⁻⁶ to 10⁻¹² M in 50 mM HEPES pH 7.5, containing 1 mM CaCl₂, 5 mM MgCl₂ and 0.5% bovine serum albumin (binding buffer). Wheatgerm scintillation proximity assay beads (Amersham®) were solubilized at 50 mg/ml in PBS, diluted to 10 mg/ml in binding buffer and put at 250 μg/well. Membranes were diluted to 80 μg/ml in binding buffer and put at 2 μg/well in the assay plates. ¹²⁵I-MIP-1α (Amersham®) was put at 0.1 nM/well and finally unlabelled chemokine was added into the plate. The plates were incubated for 3 h at room temperature with agitation and radioactivity was read with a Wallac counter.

CCR1 [2] = molecular target: T1, CCR1; assay: competition SPA, displacement of 125I-MIP-1α from CCR1 CHO membranes
Protocol: as §1

CCR5 [3] = molecular target: T2, CCR5 (UniProt P51681 1-352, limits assumed); assay: competition SPA, displacement of 125I-MIP-1α from CCR5 CHO membranes (FIG. 2)
T2 construct: whole, on cells; L1.2/CCR5 cells for chemotaxis; also called CCR5-expressing CHO membranes; L1.2/CCR5 transfectants
T2 sequence (P51681 whole entry): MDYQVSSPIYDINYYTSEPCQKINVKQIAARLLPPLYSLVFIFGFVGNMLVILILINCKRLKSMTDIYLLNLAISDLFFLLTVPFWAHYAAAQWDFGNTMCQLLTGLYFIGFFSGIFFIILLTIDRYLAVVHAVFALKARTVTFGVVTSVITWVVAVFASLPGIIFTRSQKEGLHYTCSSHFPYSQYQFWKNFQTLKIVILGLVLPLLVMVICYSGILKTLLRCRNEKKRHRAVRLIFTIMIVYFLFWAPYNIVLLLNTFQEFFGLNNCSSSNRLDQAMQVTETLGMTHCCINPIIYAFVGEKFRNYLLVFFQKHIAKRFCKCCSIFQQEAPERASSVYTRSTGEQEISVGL
Protocol: FIG. 2: Equilibrium competition binding to CCR5. The binding assay was performed by monitoring the displacement of [¹²⁵I]-MIP-1α from CCR5-expressing CHO membranes. A) PEGylated Ser/Cys variants. Added as competitors were: RANTES (□), Met-RANTES (x), S1C-5 kDaPEG-RANTES (▪), S4C-5 kDaPEG-RANTES, S5C-5 kDaPEG-RANTES (□). B) N-terminal PEGylated wt RANTES variants. Added as competitors were RANTES (□), Met-RANTES (x), PEG-2 kDa-RANTES (▴), PEG-5 kDa-RANTES (▾).
as §1

CCR5 [4] = molecular target: T2, CCR5; assay: competition SPA, displacement of 125I-MIP-1α from CCR5 CHO membranes
Protocol: as §1

Binder | IC50 (CCR1 [1]) [nM] | IC50 (CCR1 [2]) [nM] | IC50 (CCR5 [3]) [nM] | IC50 (CCR5 [4]) [nM]
B1 | 69 | 23.3 |  | 
B2 | 272 | 167 | 82.5 | 41
B3 | 83 | 84 | 45.4 | 40
B4 |  |  |  | 902
B5 | 41 | 43 |  | 
B6 | 47 | 50 |  | 
B7 | 72 | 73 | 15.5 | 15.2
